Series [1] has as its target Taxol-stabilized microtubules, digoxigenin- and HyLite-647-labeled, P02550;P02554. The series can be described thus: single-molecule imaging of MCAK-GFP on microtubules. As to conditions: 32 mM K-PIPES, parent: 6.14e-6.
Series [2] deals with the molecule itself. The series can be described thus: cross-linking; BS3 on MCAK alone: 10 µg MCAK with 20 µg BS3 in 10 mM HEPES pH 7, 200 mM potassium acetate pH 7.6, on ice 1 h; SDS-PAGE, band cut out, mass spectrometry.
Series [3] concerns the target Taxol-stabilized microtubules, digoxigenin- and HyLite-647-labeled (UniProt P02550 1-451; P02554 1-445, 8% of the tubulin digoxigenin-labeled, 3.5% labeled with HyLite-647; chain and residues not stated | 8% of the tubulin digoxigenin-labeled, 3.5% labeled with HyLite-647; chain and residues not stated). The series can be described thus: single-molecule TIRF microscopy (residence times); microtubules held on the coverslip by anti-DIG antibody; MCAK at 5-100 pM in MRB80 (80 mM K-PIPES pH 6.9, 1 mM EGTA, 4 mM MgCl2) with 1 mM ATP, κ-casein, 40 µM taxol; 23°C; off-rate = 1/τ of a single exponential fit. As to conditions: both partners purified.

Residue numbers refer to the chain shown, from its start.

Chain of Taxol-stabilized microtubules, digoxigenin- and HyLite-647-labeled (P02550 whole entry, chain 1 of 2): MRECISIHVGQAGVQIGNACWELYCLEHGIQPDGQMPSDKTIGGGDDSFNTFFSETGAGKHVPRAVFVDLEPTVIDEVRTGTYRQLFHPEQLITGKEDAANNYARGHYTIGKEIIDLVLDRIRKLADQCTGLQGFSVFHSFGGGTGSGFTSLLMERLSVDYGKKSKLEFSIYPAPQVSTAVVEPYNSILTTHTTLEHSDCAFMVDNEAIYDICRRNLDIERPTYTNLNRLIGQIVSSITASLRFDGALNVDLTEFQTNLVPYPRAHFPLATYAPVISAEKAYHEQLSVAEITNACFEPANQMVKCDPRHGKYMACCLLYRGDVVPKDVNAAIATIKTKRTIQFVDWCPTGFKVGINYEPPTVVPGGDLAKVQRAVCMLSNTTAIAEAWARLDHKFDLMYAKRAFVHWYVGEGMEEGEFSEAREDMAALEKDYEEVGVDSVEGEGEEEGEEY
Chain of Taxol-stabilized microtubules, digoxigenin- and HyLite-647-labeled (P02554 whole entry, chain 2 of 2): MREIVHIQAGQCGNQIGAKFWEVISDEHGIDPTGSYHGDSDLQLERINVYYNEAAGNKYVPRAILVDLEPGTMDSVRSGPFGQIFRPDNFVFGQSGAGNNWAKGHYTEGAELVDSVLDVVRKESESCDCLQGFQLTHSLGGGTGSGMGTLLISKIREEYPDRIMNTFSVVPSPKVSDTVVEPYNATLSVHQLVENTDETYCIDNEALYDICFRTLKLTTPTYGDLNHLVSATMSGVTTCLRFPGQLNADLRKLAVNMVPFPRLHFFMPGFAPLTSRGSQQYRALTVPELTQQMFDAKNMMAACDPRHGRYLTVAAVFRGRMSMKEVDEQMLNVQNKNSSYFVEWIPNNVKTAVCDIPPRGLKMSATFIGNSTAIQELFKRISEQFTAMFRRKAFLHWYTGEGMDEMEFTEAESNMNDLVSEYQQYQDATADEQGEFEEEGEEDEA

By kon is commonly meant the second-order rate constant of association. With “MCAK-GFP (from UniProt Q99661) S95E; S109E; S111E; S115E; S166E; S192E”, in series [1] (n = 439), the kon was determined as 11000 M⁻¹ s⁻¹.

Consider “MCAK-GFP (from UniProt Q99661) S166E; S192E”, for which the kon in series [1] (n = 280) was 6720 M⁻¹ s⁻¹.

B1: full-length human MCAK (natural protein, UniProt Q99661 1-725, looked up)
chain: MAMDSSLQARLFPGLAIKIQRSNGLIHSANVRTVNLEKSCVSVEWAEGGATKGKEIDFDDVAAINPELLQLLPLHPKDNLPLQENVTIQKQKRRSVNSKIPAPKESLRSRSTRMSTVSELRITAQENDMEVELPAAANSRKQFSVPPAPTRPSCPAVAEIPLRMVSEEMEEQVHSIRGSSSANPVNSVRRKSCLVKEVEKMKNKREEKKAQNSEMRMKRAQEYDSSFPNWEFARMIKEFRATLECHPLTMTDPIEEHRICVCVRKRPLNKQELAKKEIDVISIPSKCLLLVHEPKLKVDLTKYLENQAFCFDFAFDETASNEVVYRFTARPLVQTIFEGGKATCFAYGQTGSGKTHTMGGDLSGKAQNASKGIYAMASRDVFLLKNQPCYRKLGLEVYVTFFEIYNGKLFDLLNKKAKLRVLEDGKQQVQVVGLQEHLVNSADDVIKMIDMGSACRTSGQTFANSNSSRSHACFQIILRAKGRMHGKFSLVDLAGNERGADTSSADRQTRMEGAEINKSLLALKECIRALGQNKAHTPFRESKLTQVLRDSFIGENSRTCMIATISPGISSCEYTLNTLRYADRVKELSPHSGPSGEQLIQMETEEMEACSNGALIPGNLSKEEEELSSQMSSFNEAMTQIRELEEKAMEELKEIIQQGPDWLELSEMTEQPDYDLETFVNKAESALAQQAKHFSALRDVIKALRLAMQLEEQASRQISSKKRPQ
notes: MCAK (Kif2C), human, full length; also called Kif2C; kinesin-13; source: Sf9 insect cells (pFastBac), purified
One may read the stoichiometry N as the number of molecules, sites or subunits per partner or assembly. As to B1, in series [2], the “stoichiometry N” value is 2.

B2: Aurora B-phosphorylated MCAK-GFP (natural protein, human, UniProt Q99661 1-725, looked up)
chain: B1 chain
modifications: phosphorylated in vitro with Aurora B kinase; the sites modified in this sample are not stated
notes: MCAK (Kif2C), human, full length; Phosphorylation protocol is in Welburn et al., 2010; source: Sf9 insect cells (pFastBac), purified, phosphorylated in vitro with Aurora B kinase; not shown: GFP, C-terminal, kept
A word on the koff: it is the first-order rate constant of dissociation. A lower koff goes with a long-lived complex. For B2, the koff in series [3] was determined as 23.4 s⁻¹.

B3: MCAKS6E-GFP (natural protein, human, UniProt Q99661 1-725, looked up)
chain: B1 chain with S95E, S109E, S111E, S115E, S166E, S192E
notes: MCAK (Kif2C), human, full length, Aurora B phosphomimetic for six serines in the N-terminus and neck; Site-directed mutagenesis of MCAK-GFP; source: Sf9 insect cells (pFastBac), purified; not shown: GFP, C-terminal, kept
B3 registered a koff in series [3] of 25.8 s⁻¹.

B4: MCAKS2E-GFP (natural protein, human, UniProt Q99661 1-725, looked up)
chain: B1 chain with S166E, S192E
notes: MCAK (Kif2C), human, full length, phosphomimetic in the neck region (Ser192 and Ser166 replaced by glutamate); Site-directed mutagenesis of MCAK-GFP; source: Sf9 insect cells (pFastBac), purified; not shown: GFP, C-terminal, kept
In turn, B4 gave an off-rate constant (koff) in series [3] of 3.2 s⁻¹. This koff lies about 8.1-fold lower than the previous one.

B5: MCAK-GFP (natural protein, human, UniProt Q99661 1-725, looked up)
chain: B1 chain
notes: MCAK (Kif2C), human, full length; also called GFP-tagged MCAK; source: Sf9 insect cells (pFastBac), purified; not shown: GFP, C-terminal, kept
As for B5, the koff in series [3] amounted to 1.6 s⁻¹. Compared with the last molecule, the koff is about 2-fold lower.

For the origin of these results see PMC6398471, “The depolymerase activity of MCAK shows a graded response to Aurora B kinase phosphorylation through allosteric regulation” (Journal of Cell Science, 2019).
